The values that follow are results of earlier work, collected in US20110110932A1, “COMBINATION TREATMENT FOR OCULAR DISEASES” (OPHTHOTECH CORP., priority 2009, published 2011).

Read-outs that look alike come from different tables or passages of the source.

In data set [1] the target is α5β1 integrin (Homo sapiens, UniProt P05556+P08648).
Data set [2] relates to choroidal neovascularization (CNV). As to conditions: rabbits, CNV induced by VEGF/bFGF pellets.
Data set [3] has the same test system. As to conditions: cynomolgus monkeys, laser induced CNV.

α5β1 integrin, sequence (P08648 42-894 limits assumed): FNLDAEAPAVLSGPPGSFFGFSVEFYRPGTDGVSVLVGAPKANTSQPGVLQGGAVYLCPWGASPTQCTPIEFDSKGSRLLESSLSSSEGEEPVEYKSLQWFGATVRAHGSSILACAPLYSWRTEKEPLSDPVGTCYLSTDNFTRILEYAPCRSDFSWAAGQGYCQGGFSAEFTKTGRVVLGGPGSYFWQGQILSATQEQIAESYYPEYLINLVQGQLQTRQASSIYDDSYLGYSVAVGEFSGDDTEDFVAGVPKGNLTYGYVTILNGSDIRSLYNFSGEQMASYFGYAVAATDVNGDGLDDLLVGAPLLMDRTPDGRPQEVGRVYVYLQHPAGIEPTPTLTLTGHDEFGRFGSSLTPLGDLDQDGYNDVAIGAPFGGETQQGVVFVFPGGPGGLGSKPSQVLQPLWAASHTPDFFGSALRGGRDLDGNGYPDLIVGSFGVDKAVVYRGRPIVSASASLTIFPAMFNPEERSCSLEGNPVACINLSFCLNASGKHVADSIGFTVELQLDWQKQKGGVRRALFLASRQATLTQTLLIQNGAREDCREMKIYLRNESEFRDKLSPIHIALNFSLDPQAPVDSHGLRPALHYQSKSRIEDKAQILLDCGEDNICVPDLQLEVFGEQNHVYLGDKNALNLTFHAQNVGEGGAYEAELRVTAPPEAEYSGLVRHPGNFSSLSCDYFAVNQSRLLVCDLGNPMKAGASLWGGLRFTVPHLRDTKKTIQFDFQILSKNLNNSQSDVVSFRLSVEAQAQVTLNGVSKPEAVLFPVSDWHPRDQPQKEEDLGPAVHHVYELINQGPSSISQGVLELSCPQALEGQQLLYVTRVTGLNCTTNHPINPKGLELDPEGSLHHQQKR
α5β1 integrin, sequence (P08648 895-1049 limits assumed): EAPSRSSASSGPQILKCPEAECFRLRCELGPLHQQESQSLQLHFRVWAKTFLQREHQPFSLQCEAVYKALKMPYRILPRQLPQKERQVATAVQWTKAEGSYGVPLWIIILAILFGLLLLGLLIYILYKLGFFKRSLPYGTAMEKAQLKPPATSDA
α5β1 integrin, sequence (P05556 21-798): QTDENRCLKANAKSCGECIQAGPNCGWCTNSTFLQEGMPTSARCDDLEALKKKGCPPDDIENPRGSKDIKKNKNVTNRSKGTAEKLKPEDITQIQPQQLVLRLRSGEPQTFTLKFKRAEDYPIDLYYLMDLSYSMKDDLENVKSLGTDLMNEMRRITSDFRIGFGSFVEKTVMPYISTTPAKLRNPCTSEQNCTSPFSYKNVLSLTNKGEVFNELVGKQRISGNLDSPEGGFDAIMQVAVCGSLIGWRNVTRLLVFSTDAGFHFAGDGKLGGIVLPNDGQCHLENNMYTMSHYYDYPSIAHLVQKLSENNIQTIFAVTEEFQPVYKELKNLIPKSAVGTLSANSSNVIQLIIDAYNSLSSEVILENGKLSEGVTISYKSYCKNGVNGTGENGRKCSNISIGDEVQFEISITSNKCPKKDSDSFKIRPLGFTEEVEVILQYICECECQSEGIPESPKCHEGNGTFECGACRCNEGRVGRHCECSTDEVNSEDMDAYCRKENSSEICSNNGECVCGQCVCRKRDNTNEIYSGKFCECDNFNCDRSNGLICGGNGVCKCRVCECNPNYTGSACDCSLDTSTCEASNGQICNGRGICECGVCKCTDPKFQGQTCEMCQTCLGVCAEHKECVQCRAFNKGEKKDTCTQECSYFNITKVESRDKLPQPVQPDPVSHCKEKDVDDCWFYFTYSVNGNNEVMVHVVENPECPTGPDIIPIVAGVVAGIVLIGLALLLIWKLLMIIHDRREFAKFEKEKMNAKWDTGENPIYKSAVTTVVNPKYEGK

B1: F200: Fab fragment of volociximab; heavy chain SEQ ID NO: 6, light chain same as M200 (antibody, chains of the INN, looked up, V domains shown)
VH: QVQLKESGPGLVAPSQSLSITCTISGFSLTDYGVHWVRQPPGKGLEWLVVIWSDGSSTYNSALKSRMTIRKDNSKSQVFLIMNSLQTDDSAMYYCARHGTYYGMTTTGDALDYWGQGTSVTVSS
VL: QIVLTQSPAIMSASLGERVTMTCTASSSVSSNYLHWYQQKPGSAPNLWIYSTSNLASGVPARFSGSGSGTSYSLTISSMEAEDAATYYCHQYLRSPPTFGGGTKLEIK
modifications: Fab
Turning to B1, the “α5β1 integrin antagonistic activity” value in data set [1] is reported as “shown to have α5β1 integrin antagonistic activity”. The anti-angiogenic activity result in data set [2] and in data set [3] was “significant anti-angiogenic activity” each time.
